Results published in US20240287479A1, “GLYCOSYLTRANSFERASE MUTANT, AND METHOD FOR CATALYTIC SYNTHESIS OF REBAUDIOSIDE M USING GLYCOSYLTRANSFERASE MUTANT” (XINGHUA GL STEVIA CO., LTD, priority 2021, published 2024).
Changes are numbered by the printed parent chain. Numbers in names are those of the source.

B1: S195Q: UGT76G1 (SEQ ID NO: 1) mutant, position 195 serine to glutamine (protein)
chain: MENKTETTVRRRRRIILFPVPFQGHINPILQLANVLYSKGFSITIFHTNFNKPKTSNYPHFTFRFILDNDPQDERISNLPTHGPLAGMRIPIINEHGADELRRELELLMLASEEDEEVSCLITDALWYFAQSVADSLNLRRLVLMTSSLFNFHAHVSLPQFDELGYLDPDDKTRLEEQASGFPMLKVKDIKSAYQNWQILKEILGKMIKQTKASSGVIWNSFKELEESELETVIREIPAPSFLIPLPKHLTASSSSLLDHDRTVFQWLDQQPPSSVLYVSFGSTSEVDEKDFLEIARGLVDSKQSFLWVVRPGFVKGSTWVEPLPDGFLGERGRIVKWVPQQEVLAHGAIGAFWTHSGWNSTLESVCEGVPMIFSDFGLDQPLNARYMSDVLKVGVYLENGWERGEIANAIRRVMVDEEGEYIRQNARVLKQKADVSLMKGGSSYESLESLVSYISSL
modifications: The sequence is synthetized.
B2: S195Q-StSUS1: recombinase (crude enzyme) from E. coli BL21 (DE3) co-expressing mutant S195Q and sucrose synthase StSUS1 (protein)
chain: B1 chain
B3: L200Y-StSUS1: recombinase (crude enzyme) from E. coli BL21 (DE3) co-expressing mutant L200Y and sucrose synthase StSUS1 (protein)
chain: B1 chain with Q195S, L200Y

Legend:
Format in all cases: biochemical
[1] = Crude enzyme activity of glycosyltransferase mutants and WT (HPLC); conditions: 1.2 mM rebaudioside E, 2 mM UDPG, crude enzyme 1 mg, 37° C., 30 min
Protocol: (§1) Activities of glycosyltransferase mutants and a WT glycosyltransferase were determined. A 3 mL catalytic reaction system was prepared from the following components: 1.2 mM rebaudioside E, 2 mM UDPG, 3 mM MgCl2, crude enzyme: 1 mg, and 100 mM potassium phosphate buffer with a pH of 7.2: the balance. A catalytic reaction was conducted on a shaker at 37° C. and 200 rpm, where a sample was collected at 0 min and 30 min. Sample treatment: 500 μL of a sample solution was pipetted and added to an EP tube; the EP tube was placed in boiling water at 95° C. for 15 min to stop a reaction, and then centrifuged in a centrifuge at 12,000 rpm for 1 min; and a resulting supernatant was collected and added to a new EP tube, filtered through an organic filter membrane (0.45 μm), and stored in a liquid-phase sample bottle for high-performance liquid chromatography (HPLC) analysis. Definition of an enzyme activity (U): an enzyme amount required for producing 1 μmol of a product within 1 min is defined as 1 enzyme activity unit.
The four mutant strains S195Q-StSUS1, L200Y-StSUS1, T284S-StSUS1, and S285W-StSUS1 screened out in the above conversion experiment were used to produce glycosyltransferase mutants, and the glycosyltransferase mutants and the WT glycosyltransferase UGT76G1 were tested for activities. […] Thus, the optimal mutant strain S195Q-StSUS1 was screened out.

[2] = Kinetic parameters of purified glycosyltransferases for rebaudioside E
Protocol: as §1
(§2) A final concentration of rebaudioside E was set to 10 μM to 2,000 μM or a final concentration of rebaudioside D was set to 50 μM to 2,000 μM. Rebaudioside E or rebaudioside D solutions of different concentrations each were mixed with an appropriate amount of each of the purified WT UGT76G1 and the mutant S195Q, and an enzyme activity was determined according to the enzyme activity assay method described above. A Michaelis Menten equation was used to calculate Kn, Vmax, Keat, and Keat/Km of the purified WT glycosyltransferase and the glycosyltransferase mutant.

[3] = Kinetic parameters of purified glycosyltransferases for rebaudioside D
Protocol: as §1, §2

[4] = Preliminary screening: conversion of RebE by crude recombinases; conditions: 40° C., 12 h
Protocol: (§3) Recombinases were prepared with the mutant strains G87D-StSUS1, S147D-StSUS1, S147N-StSUS1, S195Q-StSUS1, L200Y-StSUS1, T284S-StSUS1, S285W-StSUS1, and G378P-StSUS1 and the WT strain UGT76G1-StSUS1, and then used to convert RebE or RebD to preliminarily screen out relatively-preferred mutants.
The conversion of RebE adopted a 3 mL reaction system including. RebE as a substrate: 10 g/L, sucrose: 30 g/L, crude enzyme: 5 mg/mL, and 100 mM potassium phosphate buffer (pH 7.2): the balance. A RebE conversion reaction was conducted on a shaker at 40° C. and 200 rpm for 12 h, and corresponding conversion rates were shown in FIG. 1.

[5] = Preliminary screening: conversion of RebD by crude recombinases; conditions: 40° C.; for RebD substrate conversion rate relative to UGT76G1-StSUS1: 20 h
Protocol: as §3
The conversion of RebD adopted a 3 mL reaction system including: RebD as a substrate: 1 g/L, sucrose: 3 g/L, crude enzyme: 5 mg/mL, and 100 mM potassium phosphate buffer (pH 7.2): the balance. A RebD conversion reaction was conducted on a shaker at 40° C. and 200 rpm for 6 h and 20 h, and corresponding conversion rates were shown in FIG. 2.

[6] = substrate RebE, purified enzyme
[7] = substrate RebD, purified enzyme

Molecule | enzyme activity (in words) [1] | enzyme activity relative to WT glycosyltransferase UGT76G1 [1] [times] | Kcat [2, 6] [s⁻¹] | Km [2, 6] [µM] | improvement of catalytic efficiency compared with the WT glycosyltransferase ([2]; substrate rebaudioside E) [times] | Kcat [3, 7] [s⁻¹] | Km [3, 7] [µM] | improvement of affinity compared with the WT glycosyltransferase ([3]; substrate rebaudioside D) [times] | improvement of catalytic efficiency compared with the WT glycosyltransferase ([3]; substrate rebaudioside D) [times] | RebE conversion rate relative to UGT76G1-StSUS1 [4] [times] | RebD substrate conversion rate relative to UGT76G1-StSUS1 [5] [times] | catalytic effect on RebD (in words) ([5]; 6 h)
B1 | highest enzyme activity | 1.3 | 1.48 ± 0.01 | 56.3 ± 2.02 | 2.2 | 0.25 ± 0.004 | 214 ± 14.5 | 2.2 | 2.8 |  |  | 
B2 |  |  |  |  |  |  |  |  |  | 1.1 | 1.3 | 
B3 |  |  |  |  |  |  |  |  |  | 1.1 | 1.3 | optimal catalytic effect
